Assay [1] addresses T1, human CCR4 (human, UniProt P51679 1-360).
T1 construct: whole, on cells; also called hCCR4; huCCR4
T1 sequence (looked up): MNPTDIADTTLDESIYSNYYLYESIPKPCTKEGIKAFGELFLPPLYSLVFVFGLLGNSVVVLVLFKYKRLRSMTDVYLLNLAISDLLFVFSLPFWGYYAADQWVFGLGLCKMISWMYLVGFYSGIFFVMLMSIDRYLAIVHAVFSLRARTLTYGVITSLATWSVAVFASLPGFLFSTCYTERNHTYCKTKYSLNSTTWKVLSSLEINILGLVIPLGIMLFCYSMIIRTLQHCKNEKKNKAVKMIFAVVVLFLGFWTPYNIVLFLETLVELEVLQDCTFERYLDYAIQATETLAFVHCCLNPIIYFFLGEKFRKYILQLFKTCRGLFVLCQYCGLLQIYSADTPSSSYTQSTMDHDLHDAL
In words: flow cytometry at 10 ug/ml on dye-barcoded mixed 293 lines, anti-hIgG BV421 secondary. The text has this:
(§1) To assess antibody binding selectivity, the cell lines were first labelled with unique combinations of fluorescent dyes to permit antibody staining of all cell lines in a single tube. hCCR8_293 cells were labeled with Cell Trace Far Red (Invitrogen). hCCR4_293 cells were labeled with carboxyfluorescein succinimidyl ester (Invitrogen). hCX3CR1_293 cells were labeled with both Cell Trace Far Red and carboxyfluorescein succinimidyl ester. Parental 293 cells were not labeled with dye. Anti-CCR8 antibodies were prepared at a concentration of 10 ug/ml and incubated with labeled hCCR8_293, hCCR4_293, hCX3CR1_293 or parental 293 cells that were pre-mixed at an equivalent ratio. The cells were washed and then subsequently stained with an anti-hIgG secondary antibody conjugated to Brilliant Violet 421 (Biolegend) to visualize bound antibodies. To determine the selectivity of binding, the individual cell lines were first identified in each sample and the geometric median fluorescence intensity of the secondary antibody was obtained for each population (FIG. 9B). […]

The target in assay [2] is T2, human CX3CR1 (human, UniProt P49238 1-355).
T2 construct: whole, on cells; also called hCX3CR1; huCX3CR1
T2 sequence (looked up): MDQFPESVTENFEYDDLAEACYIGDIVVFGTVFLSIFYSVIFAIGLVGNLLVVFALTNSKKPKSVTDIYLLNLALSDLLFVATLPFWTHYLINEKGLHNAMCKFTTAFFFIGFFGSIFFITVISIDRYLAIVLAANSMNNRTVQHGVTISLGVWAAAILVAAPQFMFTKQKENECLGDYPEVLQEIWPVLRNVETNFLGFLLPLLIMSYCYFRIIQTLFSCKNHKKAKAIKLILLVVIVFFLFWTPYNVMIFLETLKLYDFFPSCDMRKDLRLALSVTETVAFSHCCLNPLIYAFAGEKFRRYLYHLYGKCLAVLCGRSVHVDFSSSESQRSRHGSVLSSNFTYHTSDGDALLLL
The assay is described as above.
Description: as §1

Assay [3] concerns the target T3, human CCR8 (human, UniProt P51685 1-355). The experiment in a line: cell-based or functional assay.
Assay [4] concerns the target T3, human CCR8. In words: flow cytometry on HEK293 cells expressing human CCR8, anti-hIgG BV421 secondary. The protocol: (§2) To determine the binding potency of anti-CCR8 antibodies, a flow based binding study was performed. HEK293 were transfected using expression vectors containing human CCR8 (hCCR8), cynomolgus CCR8 (cyCCR8) or murine CCR8 (mCCR8). Anti-CCR8 antibodies were tittered in the presence of hCCR8_293 (FIG. 8A), cyCCR8_293 cells (FIG. 8B) or mCCR8_293 cells (FIG. 8C). The cells were subsequently stained with an anti-hIgG secondary antibody conjugated to Brilliant Violet 421 (Biolegend) to visualize bound anti-CCR8 antibodies. The geometric mean fluorescence intensity of each sample was used to determine the binding EC50 of each antibody with Prism v.8 (Table 4; Graphpad).

A further assay has as its target T4, mCCR8.
T4 construct: also called murine CCR8; mouse CCR8
T4 receptor: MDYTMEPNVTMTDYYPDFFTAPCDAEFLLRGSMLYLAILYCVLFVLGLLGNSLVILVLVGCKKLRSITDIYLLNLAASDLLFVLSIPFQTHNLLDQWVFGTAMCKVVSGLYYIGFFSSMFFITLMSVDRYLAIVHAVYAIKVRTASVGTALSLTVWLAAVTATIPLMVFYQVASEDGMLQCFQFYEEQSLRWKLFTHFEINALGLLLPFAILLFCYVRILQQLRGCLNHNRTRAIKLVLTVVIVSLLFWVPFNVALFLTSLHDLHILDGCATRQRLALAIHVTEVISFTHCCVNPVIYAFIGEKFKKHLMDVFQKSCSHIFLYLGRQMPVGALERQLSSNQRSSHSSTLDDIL
In words: flow cytometry titration on mCCR8_293 (HEK293) cells, anti-hIgG BV421 secondary. The protocol: as §2

Assay [5] concerns the target T5, cynomolgus CCR8 (Macaca fascicularis (cynomolgus), UniProt O97665 1-356 (rhesus entry)).
T5 construct: On transfected HEK293 cells (cyCCR8_293); also called cyCCR8; Cyno CCR8
In words: flow cytometry on HEK293 cells expressing cynomolgus CCR8, anti-hIgG BV421 secondary. The protocol: as §2

The target in assay [6] is T3, human CCR8. In words: cell-based or functional assay. The source holds these as a separate data set.
Assay [7] deals with T5, cynomolgus CCR8. The experiment in a line: flow cytometry titration on cyCCR8_293 (HEK293) cells, anti-hIgG BV421 secondary. The protocol:
as §2

The target in assay [8] is T1, human CCR4. The experiment in a line: flow cytometry on mixed dye-labelled HEK293 transfectants, signal compared with parental 293.
Description: as §1

Assay [9] deals with T2, human CX3CR1. Described as above.
Description: as §1

Several values for one entry are separate records, joined by “and”; a condition that tells them apart may be missing. Equal entries are not always repeated.

T5 sequence (O97665 other isoform, or with tags, fused parts or gaps): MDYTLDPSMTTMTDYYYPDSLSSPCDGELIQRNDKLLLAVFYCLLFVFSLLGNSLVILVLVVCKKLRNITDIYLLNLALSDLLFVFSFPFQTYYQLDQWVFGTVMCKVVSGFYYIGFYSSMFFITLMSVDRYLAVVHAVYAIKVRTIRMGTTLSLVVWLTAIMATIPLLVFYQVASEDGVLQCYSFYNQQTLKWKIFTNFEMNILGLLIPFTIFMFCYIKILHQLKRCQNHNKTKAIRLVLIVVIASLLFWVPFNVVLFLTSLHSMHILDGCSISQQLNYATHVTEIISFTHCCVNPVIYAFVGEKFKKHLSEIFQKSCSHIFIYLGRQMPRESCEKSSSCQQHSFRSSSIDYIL
T3 sequence (P51685 whole entry): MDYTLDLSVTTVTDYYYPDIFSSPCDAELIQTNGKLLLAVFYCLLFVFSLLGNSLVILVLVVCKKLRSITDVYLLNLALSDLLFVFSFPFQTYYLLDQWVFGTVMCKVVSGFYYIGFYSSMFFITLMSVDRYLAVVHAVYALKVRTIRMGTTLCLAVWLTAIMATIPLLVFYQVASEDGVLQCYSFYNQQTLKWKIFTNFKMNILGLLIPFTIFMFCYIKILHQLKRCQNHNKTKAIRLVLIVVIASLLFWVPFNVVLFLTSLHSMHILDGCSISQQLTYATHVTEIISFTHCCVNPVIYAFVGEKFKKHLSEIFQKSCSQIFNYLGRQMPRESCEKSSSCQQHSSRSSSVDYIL

B1: I3145 (antibody, V domains shown)
VH: EVQLVETGGGLIQPGGSLRLSCAASGFTVSSNYMSWVRQAPGKGLEWVSVIYSGGSTYYADSVKGRFTISRDNSKNTLYLQMNSLRAEDTAVYYCARGLGSADYWGQGTLVTVSS
VL: DVVMTQSPLSLPVTLGQPASISCRSSQSLLHSNGNTYLNWFQQRPGQSPRRLIYKVSIRDSGVPDRFSGSGSGTDFTLKISRVEAEDVGLYYCMQSTQWPITFGGGTKLEIK
notes: also called anti-CCR8 antibody clone I3145
Regarding B1, the binding result in the assay with human CCR4 [1] and with human CX3CR1 [2] was “no binding (tested: 10 ug/ml)” in each case. Moreover, the “FcR reporter activation EC50 (Hut78 target cells, Jurkat FcγRIIIa NFAT-luciferase)” value (from here on “FcR reporter activation EC50”) with human CCR8 [3] is 0.569 µg/mL and 3790 pM. The EC50 with human CCR8 [4] was 2.43 µg/mL and 16.2 nM.

B2: I2676 (antibody, V domains shown)
VH: QVQLVESGGGVVQPGRSLRLSCAASGFTFSSYAMHWVRQAPGKGLEWVAVISYDGSNKYYADSVKGRFTISRDNSKNTLYLQMNSLRAEDTAVYYCARVRDRAFDIWGQGTMVTVSS
VL: QAVLTQPASLSASPGASASLTCTLRSGINVGTYRIYWYQQKPGSPPQYLLRYKSDSDKQQGSGVPSRFSGSKDASANAGILLISGLQSEDEADYYCMIWHSSARNWVFGGGTKLTVL
notes: also called anti-CCR8 antibody clone I2676
In the case of B2, the binding result with mCCR8 is listed as “no binding (tested: about 30 ug/ml (log 1.5))”; in the assay with human CCR4 [1], “no binding (tested: 10 ug/ml)”; with human CX3CR1 [2], “no binding (tested: 10 ug/ml)”. The EC50 with cynomolgus CCR8 [5] was 0.3 µg/mL and 2 nM; with human CCR8 [4], 0.18 µg/mL and 1.2 nM. Further, the “FcR reporter activation EC50” value with human CCR8 [3] is 0.00592 µg/mL and 39.4 pM. Further, the “NK Killing EC50 (primary human NK cells, TALL1 target cells)” value (“NK Killing EC50” below) in the assay with human CCR8 [6] was 0.000856 µg/mL and 6 pM.

B3: I3210 (antibody, V domains shown)
VH: QVQLVESGGGVVQPGRSLRLSCAASGFTFSSYAMHWVRQAPGKGLEWVAVISYDGSNKYYADSVKGRFTISRDNSKNTLYLQMNSLRAEDTAVYYCARVRDRAFDIWGQGTMVTVSS
VL: QAVLTQPASLSASPGASASLTCTLRSGINVGTYRIYWYQQKPGSPPQYLLRIIKSGSSDKQQGSGVPSRFSGSKDASANAGILLISGLQSEDEADYYCMIWHSSARNWVFGGGTKLTVLG
notes: also called anti-CCR8 antibody clone I3210
Take B3: in the assay with human CCR8 [3], the “FcR reporter activation EC50” value was 32.1 pM and 0.00482 µg/mL. The EC50 in the assay with human CCR8 [4] is 0.2 µg/mL and 1.3 nM. In addition, the “NK Killing EC50” value in the assay with human CCR8 [6] is 0.00065 µg/mL and 4.5 pM.

B4: I3213 (antibody, V domains shown)
VH: QVQLVESGGGVVQPGRSLRLSCAASGFTFSSYAMHWVRQAPGKGLEWVAVISYDGSNKYYADSVKGRFTISRDNSKNTLYLQMNSLRAEDTAVYYCARVRDRAFDIWGQGTMVTVSS
VL: QAVLTQPASLSASPGASASLTCTLRSGINLGTYRIYWYQQKPGSPPQYLLRYKSDSDKQQGSGVPSRFSGSKDASANAGILLISGLQSEDEADYYCMIWHSSARNWVFGGGTKLTVLG
notes: also called anti-CCR8 antibody clone I3213
On to B4, for which the “FcR reporter activation EC50” value with human CCR8 [3] was 0.00455 µg/mL and 30.4 pM. Also, the EC50 in the assay with human CCR8 [4] was 0.16 µg/mL and 1.1 nM. In the assay with human CCR8 [6], the “NK Killing EC50” value was 0.000602 µg/mL and 4.2 pM.

B5: I3144 (antibody, V domains shown)
VH: QVQLVESGGGVVQPGRSLRLSCAASGFTFSSYAMHWVRQAPGKGLEWVAVISYDGSNKYYADSVKGRFTISRDNSKNTLYLQMNSLRAEDTAVYYCARVRDRAFDIWGQGTMVTVSS
VL: QAVLTQPASLSASPGASASLTCTLRSGINVGTYRIYWYQQKPGSPPQYLLRYKSDSDKQQGSGVPSRFSGSKDASANAGILLISGLQSEDEADYYCMIWHSSARNWVFGGGTKLTVL
notes: also called anti-CCR8 antibody clone I3144
For the molecule B5, the binding result with human CCR4 [1] and with human CX3CR1 [2] was “no binding (tested: 10 ug/ml)” each time. In the assay with human CCR8 [3], the “FcR reporter activation EC50” value is 0.0091 µg/mL and 60.8 pM. Also, in the assay with human CCR8 [4], the EC50 was 4.6 nM and 0.69 µg/mL. In addition, in the assay with cynomolgus CCR8 [7], the “EC50 (read off the curve)” value is about 1 µg/mL.

B6: I2677 (antibody, V domains shown)
VH: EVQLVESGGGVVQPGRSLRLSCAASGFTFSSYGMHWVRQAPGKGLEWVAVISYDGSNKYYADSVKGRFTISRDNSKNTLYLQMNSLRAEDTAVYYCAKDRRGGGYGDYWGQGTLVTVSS
VL: QAVLTQPASLSASPGASASLTCTLRSGINVGTYRIYWYQQKPGSPPQYLLRYKSDSDKQQGSGVPSRFSGSKDASANAGILLISGLQSEDEADYYCMIWHSSARNWVFGGGTQLTVL
notes: also called anti-CCR8 antibody clone I2677
As to B6, the binding result with human CCR4 [8] and with human CX3CR1 [9] was “no binding (tested: 10 ug/ml)” in each case. Further, the EC50 is 9.6 µg/mL and 64 nM with cynomolgus CCR8 [5]; 0.13 µg/mL and 0.9 nM in the assay with human CCR8 [4]. Besides, the “FcR reporter activation EC50” value with human CCR8 [3] was 0.116 µg/mL and 772 pM.

For the origin of these results see US20230416382A1 (Five Prime, published 2023).
